Test results: US20230212549A1 (3B PHARMACEUTICALS, published 2023)
Values joined by “and” are separate entries in the source; they are usually repeats but may differ in a detail not shown here. Equal values may be shown once. Numbered stars: 1 amine (or outer) side, 2 acyl side, 3 side chain; on linkers, the order of the positions; unused ones are H or OH. Bridge positions count the residues as written; N and C are the ends. Square brackets hold non-standard residues; d marks the D form. * marks the point of attachment. DOTA = O=C(O)CN1CCN(CC(=O)O)CCN(CC(=O)*)CCN(CC(=O)O)CC1; Phe(2-Cl) = N[C@@H](Cc1ccccc1Cl)C(=O)O; mXylylene = c1cc(C[*:1])cc(C[*:2])c1; NMeF = CN[C@@H](Cc1ccccc1)C(=O)O; 4Amb = NCc1ccc(C(=O)O)cc1; Hexanoyl = CCCCCC(=O)*; Aib = CC(C)(N)C(=O)O; βAla = NCCC(=O)O

B1: Hex-[Cys(3MeBn)-Pro-Pro-Thr-Glu-Ocf-Cys]-NH2 (peptide)
peptide: Hexanoyl-CPPTE[Phe(2-Cl)]C-NH2
modifications: linker 1-7 via mXylylene
SMILES: CCCCCC(=O)N[C@H]1CSCc2cccc(c2)CSC[C@@H](C(N)=O)NC(=O)[C@H](Cc2ccccc2Cl)NC(=O)[C@H](CCC(=O)O)NC(=O)[C@H]([C@@H](C)O)NC(=O)[C@@H]2CCCN2C(=O)[C@@H]2CCCN2C1=O
notes: also called 3BP-3368
B2: Ac-Met-[Cys(3MeBn)-Pro-Pro-Thr-Glu-Phe-Cys]-asp-His-Phe-Arg-Asp-NH2 (peptide)
peptide: Ac-MCPPTEFC[dD]HFRD-NH2
modifications: linker 2-8 via mXylylene
SMILES: CSCC[C@H](NC(C)=O)C(=O)N[C@H]1CSCc2cccc(c2)CSC[C@@H](C(=O)N[C@H](CC(=O)O)C(=O)N[C@@H](Cc2c[nH]cn2)C(=O)N[C@@H](Cc2ccccc2)C(=O)N[C@@H](CCCNC(=N)N)C(=O)N[C@@H](CC(=O)O)C(N)=O)NC(=O)[C@H](Cc2ccccc2)NC(=O)[C@H](CCC(=O)O)NC(=O)[C@H]([C@@H](C)O)NC(=O)[C@@H]2CCCN2C(=O)[C@@H]2CCCN2C1=O
notes: also called 3BP-3183
B3: Ac-Met-[cys(3MeBn)-Pro-Pro-Thr-Glu-Phe-cys]-Asp-His-Phe-Arg-Asp-NH2 (peptide)
peptide: Ac-M[dC]PPTEF[dC]DHFRD-NH2
modifications: linker 2-8 via mXylylene
SMILES: CSCC[C@H](NC(C)=O)C(=O)N[C@@H]1CSCc2cccc(c2)CSC[C@H](C(=O)N[C@@H](CC(=O)O)C(=O)N[C@@H](Cc2c[nH]cn2)C(=O)N[C@@H](Cc2ccccc2)C(=O)N[C@@H](CCCNC(=N)N)C(=O)N[C@@H](CC(=O)O)C(N)=O)NC(=O)[C@H](Cc2ccccc2)NC(=O)[C@H](CCC(=O)O)NC(=O)[C@H]([C@@H](C)O)NC(=O)[C@@H]2CCCN2C(=O)[C@@H]2CCCN2C1=O
notes: also called 3BP-3181
B4: Ac-Met-[Cys(3MeBn)-Aib-Pro-Thr-Glu-Phe-Cys]-Asp-His-Phe-Arg-Asp-NH2 (peptide)
peptide: Ac-MC[Aib]PTEFCDHFRD-NH2
modifications: linker 2-8 via mXylylene
SMILES: CSCC[C@H](NC(C)=O)C(=O)N[C@H]1CSCc2cccc(c2)CSC[C@@H](C(=O)N[C@@H](CC(=O)O)C(=O)N[C@@H](Cc2c[nH]cn2)C(=O)N[C@@H](Cc2ccccc2)C(=O)N[C@@H](CCCNC(=N)N)C(=O)N[C@@H](CC(=O)O)C(N)=O)NC(=O)[C@H](Cc2ccccc2)NC(=O)[C@H](CCC(=O)O)NC(=O)[C@H]([C@@H](C)O)NC(=O)[C@@H]2CCCN2C(=O)C(C)(C)NC1=O
notes: also called 3BP-3204
B5: Ac-Met-[Cys(3MeBn)-Pro-Pro-thr-Glu-Phe-Cys]-Asp-His-Phe-Arg-Asp-NH2 (peptide)
peptide: Ac-MCPP[dT]EFCDHFRD-NH2
modifications: linker 2-8 via mXylylene
SMILES: CSCC[C@H](NC(C)=O)C(=O)N[C@H]1CSCc2cccc(c2)CSC[C@@H](C(=O)N[C@@H](CC(=O)O)C(=O)N[C@@H](Cc2c[nH]cn2)C(=O)N[C@@H](Cc2ccccc2)C(=O)N[C@@H](CCCNC(=N)N)C(=O)N[C@@H](CC(=O)O)C(N)=O)NC(=O)[C@H](Cc2ccccc2)NC(=O)[C@H](CCC(=O)O)NC(=O)[C@@H]([C@H](C)O)NC(=O)[C@@H]2CCCN2C(=O)[C@@H]2CCCN2C1=O
notes: also called 3BP-3178
B6: Ac-Met-[Cys(3MeBn)-Pro-Pro-Thr-Glu-Phe-cys]-Asp-His-Phe-Arg-Asp-NH2 (peptide)
peptide: Ac-MCPPTEF[dC]DHFRD-NH2
modifications: linker 2-8 via mXylylene
SMILES: CSCC[C@H](NC(C)=O)C(=O)N[C@H]1CSCc2cccc(c2)CSC[C@H](C(=O)N[C@@H](CC(=O)O)C(=O)N[C@@H](Cc2c[nH]cn2)C(=O)N[C@@H](Cc2ccccc2)C(=O)N[C@@H](CCCNC(=N)N)C(=O)N[C@@H](CC(=O)O)C(N)=O)NC(=O)[C@H](Cc2ccccc2)NC(=O)[C@H](CCC(=O)O)NC(=O)[C@H]([C@@H](C)O)NC(=O)[C@@H]2CCCN2C(=O)[C@@H]2CCCN2C1=O
notes: also called 3BP-3182
B7: Ac-Met-[Cys(3MeBn)-Pro-Pro-Thr-glu-Phe-Cys]-Asp-His-Phe-Arg-Asp-NH2 (peptide)
peptide: Ac-MCPPT[dE]FCDHFRD-NH2
modifications: linker 2-8 via mXylylene
SMILES: CSCC[C@H](NC(C)=O)C(=O)N[C@H]1CSCc2cccc(c2)CSC[C@@H](C(=O)N[C@@H](CC(=O)O)C(=O)N[C@@H](Cc2c[nH]cn2)C(=O)N[C@@H](Cc2ccccc2)C(=O)N[C@@H](CCCNC(=N)N)C(=O)N[C@@H](CC(=O)O)C(N)=O)NC(=O)[C@H](Cc2ccccc2)NC(=O)[C@@H](CCC(=O)O)NC(=O)[C@H]([C@@H](C)O)NC(=O)[C@@H]2CCCN2C(=O)[C@@H]2CCCN2C1=O
notes: also called 3BP-3179
B8: DOTA-Bal-[Cys(3MeBn)-Pro-Pro-Thr-Glu-Phe-Cys]-Asp-His-Nmf-Arg-Asp-NH2 (peptide)
peptide: {DOTA}-[βAla]CPPTEFCDH[NMeF]RD-NH2
modifications: linker 2-8 via mXylylene
SMILES: C[C@@H](O)[C@@H]1NC(=O)[C@@H]2CCCN2C(=O)[C@@H]2CCCN2C(=O)[C@@H](NC(=O)CCNC(=O)CN2CCN(CC(=O)O)CCN(CC(=O)O)CCN(CC(=O)O)CC2)CSCc2cccc(c2)CSC[C@@H](C(=O)N[C@@H](CC(=O)O)C(=O)N[C@@H](Cc2c[nH]cn2)C(=O)N(C)[C@@H](Cc2ccccc2)C(=O)N[C@@H](CCCNC(=N)N)C(=O)N[C@@H](CC(=O)O)C(N)=O)NC(=O)[C@H](Cc2ccccc2)NC(=O)[C@H](CCC(=O)O)NC1=O
notes: also called 3BP-3264
B9: Hex-[Cys(3MeBn)-Pro-Pro-Thr-Glu-Phe-Cys]-Pamb-Arg-NH2 (peptide)
peptide: Hexanoyl-CPPTEFC[4Amb]R-NH2
modifications: linker 1-7 via mXylylene
SMILES: CCCCCC(=O)N[C@H]1CSCc2cccc(c2)CSC[C@@H](C(=O)NCc2ccc(C(=O)N[C@@H](CCCNC(=N)N)C(N)=O)cc2)NC(=O)[C@H](Cc2ccccc2)NC(=O)[C@H](CCC(=O)O)NC(=O)[C@H]([C@@H](C)O)NC(=O)[C@@H]2CCCN2C(=O)[C@@H]2CCCN2C1=O
notes: also called 3BP-3303

molecular target: T1, fibroblast activation protein (FAP) on FAP-expressing human WI-38 fibroblasts (human, UniProt Q12884 1-760); assay: competitive FACS, WI-38 cells, vs Cy5 tracer m3; C = pIC50 6.1-7.0
T1 construct: also called human FAP

| pIC50 Category (FACS) | Binder |
| --- | --- |
| 6.1 pIC50 and 7 pIC50 | B1 |

molecular target: T1, fibroblast activation protein (FAP) on …; assay: competitive FACS, WI-38 cells, vs Cy5 tracer m3; B = pIC50 7.1-8.0

| pIC50 Category (FACS) | Binder |
| --- | --- |
| 7.1 pIC50 and 8 pIC50 | B2 |
| 7.1 pIC50 and 8 pIC50 | B3 |
| 7.1 pIC50 and 8 pIC50 | B4 |
| 7.1 pIC50 and 8 pIC50 | B5 |
| 7.1 pIC50 and 8 pIC50 | B6 |
| 7.1 pIC50 and 8 pIC50 | B7 |
| 7.1 pIC50 and 8 pIC50 | B8 |
| 7.1 pIC50 and 8 pIC50 | B9 |

molecular target: Recombinant human FAP (R&D systems, #3715-SE) (human, UniProt Q12884 26-760); assay: cell-based or functional assay

| pIC50 Category (Activity) | Binder |
| --- | --- |
| 7.1 pIC50 and 8 pIC50 | B2 |
| 7.1 pIC50 and 8 pIC50 | B3 |
| 7.1 pIC50 and 8 pIC50 | B4 |
| 7.1 pIC50 and 8 pIC50 | B5 |
| 7.1 pIC50 and 8 pIC50 | B6 |
| 6.1 pIC50 and 7 pIC50 | B7 |
| 7.1 pIC50 and 8 pIC50 | B8 |
| 7.1 pIC50 and 8 pIC50 | B1 |
| > 8 pIC50 | B9 |
